For one series, the target named is IFN-γ (human, UniProt P01579 24-166). As to the kind of experiment: MST; aptamer:protein 1:50; MST: 30 nM Cy5-a'-Apt final with 45 pM (4.5 pM in Fig S3 legend) to 1.5 uM protein, 37 °C, 2 h; specificity MST 5 nM aptamer, 0.25 uM protein; buffer, salt and. Conditions: protein: commercial; chain copies: 2; label: 5'-Cy5; annealed 95 °C 5 min, 4 °C 30 min.
The next series deals with TGFβ1 (active, mature) (human, UniProt P01137 279-390). Put plainly: MST; 37 °C, 2 h; MST: 30 nM Cy5-a'-Apt final with 45 pM (4.5 pM in Fig S3 legend) to 1.5 uM protein, 37 °C, 2 h; specificity MST 5 nM aptamer, 0.25 uM protein; buffer, salt and. Conditions: protein: commercial; chain copies: 2; label: 5'-Cy5; annealed 95 °C 5 min, 4 °C 30 min.
Chain of TGFβ1 (active, mature) (P01137 279-390): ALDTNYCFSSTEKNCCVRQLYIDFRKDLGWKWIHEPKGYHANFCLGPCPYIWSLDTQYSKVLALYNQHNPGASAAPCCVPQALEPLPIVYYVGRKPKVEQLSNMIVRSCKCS

Experimental findings from publication PMC12499412, “Engineering DNA Origami Captors for TGFβ1 Sequestration to Enhance Tumor Immune Modulation and Therapy” are described below.

Chain of IFN-γ (P01579 24-166): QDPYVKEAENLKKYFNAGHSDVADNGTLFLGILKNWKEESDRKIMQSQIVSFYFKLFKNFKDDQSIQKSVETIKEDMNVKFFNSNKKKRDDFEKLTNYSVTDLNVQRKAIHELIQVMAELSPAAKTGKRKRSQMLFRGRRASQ

B1: Cy5-a'-Apt (ssDNA)
DNA: TCGCTCGGCTTCACGAGATTCGTGTCGTTGTGTCCTGTACCCGCCTTGACCAGTCACTCTAGAGCATCCGGACTGTAGATGGAGTGTGGTGTGAAG
modifications: phosphorothioates at A and C bases (positions marked * in Table S3)
What is called Kd is the free concentration of one partner at which half of the binding sites on the other are occupied at equilibrium, for simple one-to-one binding. As to B1, the binding result with IFN-γ is on record as “no binding”. In the series with TGFβ1 (active, mature), the dissociation constant (Kd) was found to be 28 nM.
